# Laboratory results taken from US5942405A, “Therapeutic and screening methods using C3a receptor and C3a” (priority 1997, dated 1999).
# Target: T1, C3a Receptor (Homo sapiens, UniProt Q16581)
# T1 sequence (Q16581 1-482 F151C): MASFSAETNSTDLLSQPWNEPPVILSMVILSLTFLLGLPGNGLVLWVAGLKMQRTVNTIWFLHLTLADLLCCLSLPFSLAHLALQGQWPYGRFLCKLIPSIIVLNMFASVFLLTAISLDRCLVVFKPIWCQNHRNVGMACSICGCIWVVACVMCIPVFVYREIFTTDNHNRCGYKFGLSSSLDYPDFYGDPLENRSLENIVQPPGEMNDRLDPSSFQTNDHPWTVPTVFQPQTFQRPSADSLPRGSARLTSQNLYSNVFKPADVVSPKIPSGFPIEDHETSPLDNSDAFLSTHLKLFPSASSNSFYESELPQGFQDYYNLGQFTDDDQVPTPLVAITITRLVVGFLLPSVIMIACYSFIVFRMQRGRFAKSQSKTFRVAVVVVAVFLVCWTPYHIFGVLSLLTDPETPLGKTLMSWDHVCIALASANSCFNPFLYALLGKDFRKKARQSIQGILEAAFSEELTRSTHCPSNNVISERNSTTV
# Experiment: Calcium mobilization by Fura 2 loaded RBL-2H3 cells stably expressing C3a Receptor
# Type: cell-based
# Design: cDNA encoding a complete orphan GPCR of 482 amino acids; expressed in transfected cells
# Details: for EC50: Fura 2 loaded RBL-2H3 cells expressing C3a Receptor, read-out: EC50, mobilization of intracellular Ca2+; for mobilization of intracellular Ca2+ (response in words): RBL-2H3 cells expressing C3a Receptor, Fig. 4: rC5a 100 nM, C3a analogue peptide 1 uM
# Protocol: (A) Electrophysiological response of Xenopus oocytes injected with cRNA for C3a Receptor (10 ng), total U937 RNA (25 ng), or a mixture of C3a Receptor (10 ng) and U937 RNA (25 ng) to 10 nM rC5a, 10 nM C3a analogue peptide, 10 nM platelet activating factor (PAF), 10 nM fMetLeuPhe. Inset, represents typical response of oocytes co-injected with C3a Receptor cRNA+U937 RNA to 10 nM C3a. (B) Electrophysiological response of oocytes injected with C5a-R cRNA (10 ng), U937 RNA (25 ng) or a mixture of C5a-R and U937 RNA, to 10 nM rC5a or 10 nM C3a analogue peptide. […] Calcium mobilization by Fura 2 loaded cells expressing C5a receptor (FIGS. 4A & 4C) or C3a Receptor (FIGS. 4B & 4D) in response to rC5a (10 nM, FIG. 4A or 100 nM, FIG. 4B) or C3a analogue peptide (1 uM, FIGS. 4C & 4D).
# To prepare C3a Receptor for expression in mammalian cells, a 1.6 kb cDNA fragment was obtained by PCR amplification that encompassed the entire C3a Receptor open reading frame. This fragment was subcloned into KpnI/Hind III sites of the mammalian expression vector, pCDN (Aiyar, N., et al (1994) Mol. Cell. Bio. 131, 75-86). Oligonucleotide primers used for PCR amplification were 5'-GA AGT GGT ACC ATG GCG TC-3' (SEQ ID NO:4) and 5'-GC TCCAAGCTTTCACACAGTTG-3' (SEQ ID NO:5) (the translation start and stop codons are underlined). RBL-2H3 cells were electroporated with either C3a Receptor or C5a-R in the pCDN mamalian expression vector (Aiyar, N., et al (1994) Mol. Cell. Bio. 131, 75-86), exactly as described (DeMartino, J. A., et al (1994) J. Biol Chem. 269, 14446-14450). Individual G418 resistant (400 μg/ml) colonies were isolated and expanded. Clonal cell lines expressing either C3a Receptor or C5a-R were chosen for further functional and binding studies.
# RBL-2H3 cells (Siraganian, R. P., et al (1982) Fed. Proc. 41, 30-34), a rat basophil cell line, when transfected with an expression plasmid encoding the C5a-R express receptors that are functionally active (DeMartino, J. A., et al (1994) J. Biol. Chem. 269, 14446-14450). RBL-2H3 cells were stably transfected with mammalian expression plasmids encoding the C5a-R or C3a Receptor and Fura 2 loaded cells were tested for a C5a or C3a induced mobilization of intracellular Ca^2+.
# Fura 2 loaded clonal cell lines expressing C5a-R or C3a Receptor were assayed for functional response, Ca^2+ mobilization, as described (Saussy, D. L. Jr., et al (1989) J. Biol. Chem. 264, 19845-19855).
molecule,measurement,setting,value
"C3a: C3a was purchased from Advanced Research Technologies, San Diego; anaphylatoxin; radioiodinated for binding",EC50,,0.3 nM
same,mobilization of intracellular Ca2+ (response in words),,bind and respond
same,mobilization of intracellular Ca2+ (response in words),listed as native human C3a,responded
"WWGKKYRASKLGLAR [C3a analogue synthetic peptide, reference compound]",EC50,,3.9 nM
same,mobilization of intracellular Ca2+ (response in words),,respond
same,mobilization of intracellular Ca2+ (response in words),listed as C3a synthetic peptide,robust response
"rC5a: Human rC5a was expressed in E. coli and purified to homogeneity (protein, UniProt P01031 678-751, looked up, C5a anaphylatoxin recombinant, E. coli, Human rC5a was expressed in E. coli and purified to homogeneity) C5a anaphylatoxin: TLQKKIEEIAAKYKHSVVKKCCYDGACVNNDETCEQRAARISLGPRCIKAFTECCVVASQLRANISHKDMQLGR",mobilization of intracellular Ca2+ (response in words),,not C3a Receptor expressing cells responded
